From the supplement of paper PMC11865577

Key:
Experiment in all cases: pull-down binding Z-score (relative to library population); higher = stronger binding
[1] = system: G-clamp-N3 (biotin conjugate); conditions: RNA library: Library-1 (pre-miRNA loops + repeats)
Summary of the method: (§1)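 Biotin-conjugated small molecule (100 pmol) on streptavidin beads was incubated with 1 μg of heat-folded Cy5- or Cy3-end-labelled RNA library in phosphate/NaCl/KCl buffer at 25 °C for 60 min. Following three washes, RNA was eluted with hot SDS and hybridised at 55.5 °C for 20 h to a DNA barcode microarray. The binding value is a Z-score computed from the library mean and standard deviation, after subtraction of beads without compound and averaging of barcoded replicate probes with the highest and lowest excluded.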

[2] = system: TO-3-N3 (biotin conjugate); conditions: RNA library: Library-2
Summary of the method: as §1

[3] = system: TO-3-N3-2 (biotin conjugate); conditions: RNA library: Library-2
Summary of the method: as §1

[4] = system: TO-N3 (biotin conjugate); conditions: RNA library: Library-2
Summary of the method: as §1

[5] = system: TO-N3-2 (biotin conjugate); conditions: RNA library: Library-2
Summary of the method: as §1

Sequence | pull-down binding Z-score [1] | pull-down binding Z-score [2] | pull-down binding Z-score [3] | pull-down binding Z-score [4] | pull-down binding Z-score [5]
UUUGCAUCUGGACGACGAAU [hsa-mir-409] | -0.465 | -0.355 | -0.0371 | -0.021 | 0.523
CUUAAGUGGUUCGGGUAAAUCACUUUAA [hsa-mir-3977] | -1.04 | -0.623 | -0.186 | -0.623 | -0.585
GGCGCACAGCAGACCCUGCAAUCAUGCC [hsa-mir-3164] | 0.000458 | 0.966 | 0.119 | 1.03 | 0.621
AAUGCAUAGAAAGCAUU [hsa-mir-4272] | 1.58 | -0.177 | 0.00602 | -0.421 | -0.629
UAUGCAAAGCUCUGACAGUGUUUCACUUGCUA [hsa-mir-7848] | 0.148 | -0.489 | -0.145 | -0.256 | -0.0647
AAGUGCCGUCCUCAUGAGCCCCU [hsa-mir-6769b] | -0.873 | 0.296 | 0.181 | 0.59 | 0.802
CGUGCUCAGCUUGGCACCCAAGUUCUGC [hsa-mir-7704] | -0.0193 | -0.129 | -0.12 | 0.485 | 1.39
GGCUCCUGGCGCUGAUGCC [hsa-mir-6886] | -0.347 | 0.85 | 0.297 | 1.15 | 1.15
GACGUCCAAUCUCUUUGGGACGCC [hsa-mir-2682] | 2.24 | 0.551 | -0.309 | 0.419 | -0.436
CUUUUUGCCACCUGAGCACAGUCAGCAGUCAGCAUAAAA [hsa-mir-4275] | 0.39 | 0.6 | 0.292 | 1.13 | 1.15
UCGCCUAGGGCUCUGAGCAGGGCA [hsa-mir-211] | 1.4 | 1.36 | 0.463 | 1.72 | 1.47
CCGGCCCGUUAGUUGCCCGGGCCCG [hsa-mir-3181] | -0.29 | -0.57 | -0.397 | -0.422 | 0.914
UUACUGCAGGGAUCUUAGCAGUAC [hsa-mir-583] | -0.752 | 0.295 | 0.0351 | 0.303 | 0.435
CCUGCAGGUGAGAGCGGGAACACCUGCAU [hsa-mir-7112] | 0.953 | -0.176 | 0.104 | 0.311 | 1.03
AUUGAGUUACCUUUCUGACUUUCCCACU [hsa-mir-28] | -0.594 | 0.108 | 0.0519 | -0.0391 | -0.279
CAUACAUUUUGAAUAUGUAUG [hsa-mir-299] | -0.304 | 0.734 | -0.504 | 0.336 | -1.29
CUCCUCCGCUGCCGCCGGGAGAG [hsa-mir-4785] | 0.0193 | -0.584 | -0.327 | -0.794 | 0.0312
GCUCAAGCCACAGCAGGGUGUUUAGCGCUCUUCAGUGGCUCCAG [hsa-mir-1203] | -1.23 | -0.00832 | -0.102 | 0.563 | 1.14
AAUCCCUCUCUUUCUAGUUCUUCCUAGAGUGAGGAAAA [hsa-mir-320b-1] | -1.69 | -0.294 | -0.166 | -0.325 | -0.55
CAUUCUUUGCUA [hsa-mir-567] | -1.3 | 0.85 | -0.257 | 0.664 | -0.53
UUGAGAAGUAAUUGA [hsa-mir-548ak] | 0.0758 | 0.404 | -0.0284 | 0.251 | -0.239
UUUGCCAUUAAAAGUAAUGGUAAA [hsa-mir-548x-2] | -0.261 | -0.753 | -0.616 | -1.29 | -1.58
CCUUGUGAAUGUCGGGCAAUGG [hsa-mir-4701] | 1.59 | -0.0355 | 0.357 | 0.267 | 0.503
AGCAGUACCAGAUGGUUCUGUGG [hsa-mir-3198-2] | -1.54 | -0.0816 | -0.262 | -0.0604 | -0.167
GUAUGAGUGGUGUGGAGUCUUCAUAA [hsa-mir-9-1] | -0.511 | 0.179 | -0.08 | 0.292 | 0.298

Sequence | pull-down binding Z-score [1] | pull-down binding Z-score [2] | pull-down binding Z-score [3] | pull-down binding Z-score [4] | pull-down binding Z-score [5]
GUGAGUGUCUCUUGUCGC [hsa-mir-1281] | 1.22 | 0.334 | -0.252 | 0.328 | 0.25
GGAGAUCGUACC [hsa-mir-4430] | -0.504 | -0.109 | -0.372 | -0.107 | -0.15
UUUAUGCCUGUUAGCAUGAAAAAAGAGGCUGAGAA [hsa-mir-7515] | -0.395 | -0.5 | 0.165 | -0.368 | 0.0418
GCUUUCUGUGGUCAGAAAGAAAAGCAAGU [hsa-mir-520f] | 1.15 | 0.636 | 0.704 | 0.758 | 0.76
UGUAUUUUUCAGCAAGGCAAGGGCUUUGAUGUCUUGUA [hsa-mir-8065] | -0.314 | -0.583 | -0.132 | -0.402 | -0.0538
GUUGGGGAACAGGUGGUUAGCACUUCAU [hsa-mir-5196] | 0.351 | 1.07 | 0.521 | 1.35 | 0.81
UGAGUUUA [hsa-mir-451a] | -1.09 | -0.287 | -0.207 | -0.22 | -0.372
AUCUAUUCCAGAAGAU [hsa-mir-4696] | 1.53 | -0.911 | -0.62 | -1.28 | -1.35
GACGGCGCCCGCCCUGGCCCUGGC [hsa-mir-4745] | 0.486 | 0.678 | 0.0825 | 1.16 | 1.96
UAUUGCAAAGAUUUUCAAUA [hsa-mir-3915] | -0.191 | -0.611 | -0.307 | -0.988 | -1.1
UCUUAGCACGGGGUCUAAGG [hsa-mir-4747] | 0.0593 | -0.188 | -0.0231 | -0.33 | -0.257
GUUUACGUGAUUCCUGGUUAAUC [hsa-mir-376b] | 0.375 | -0.121 | -0.0636 | -0.0962 | -0.0759
ACUGAACCAGCUUCAAACAAGUUCACU [hsa-mir-653] | -0.145 | -0.0896 | 0.0338 | -0.121 | -0.00579
GGCUGGCCCCCUGCUUCGUGCCCAUCC [hsa-mir-937] | -1.14 | 0.211 | 0.127 | 0.83 | 1.53
AGUCCGUGCAUCCGCCCUUCGAUGCUUGGGUU [hsa-mir-3182] | -1.11 | -0.405 | -0.389 | -0.278 | 0.421
GUUGCAUGUUGUCACGGCCUCAAUGCAAU [hsa-mir-32] | -1.33 | -0.164 | -0.202 | 0.0815 | 0.552
GUUGACUGUUGAAUCUCAUGGCAAC [hsa-mir-21] | -0.474 | -0.114 | -0.186 | 0.0029 | 0.204
UGGGUGGAUCCUCUAUUUCCUUACGUGGGCCACUGG [hsa-mir-432] | 0.632 | 0.45 | -0.013 | 0.729 | 0.845
GGAGACACUUUUACUAUAUAUAGUGGCUCC [hsa-mir-3156-1] | -0.0968 | -1.09 | -0.555 | -1.5 | -1.51
CAUUGUAACAUGAUAGUG [hsa-mir-4264] | 0.389 | -0.752 | -0.295 | -0.441 | -0.45
CCAAAGAAACUUUUUUGG [hsa-mir-6079] | -0.295 | -0.414 | -0.557 | -0.761 | -1.1
UGUCAUUGAAAGUAAUAGCA [hsa-mir-548h-3] | -1.07 | -0.165 | -0.0124 | -0.141 | -0.319
CACUAAUGUGAUUAAUGUUGUUGUG [hsa-mir-3657] | -1.39 | -0.405 | -0.0793 | -0.611 | -0.402
GGGCCAUGUCUGUGAGGGCCCA [hsa-mir-4294] | 3.2 | -0.261 | 0.0026 | 0.221 | 0.936
AUCUGCAGGGCAUUGUGCUAACAGGU [hsa-mir-4681] | 1.35 | 0.532 | 0.211 | 0.644 | 0.0756

Sequence | pull-down binding Z-score [1] | pull-down binding Z-score [2] | pull-down binding Z-score [3] | pull-down binding Z-score [4] | pull-down binding Z-score [5]
AUUGUACUGUGGUGGUUACAAU [hsa-mir-34b] | 0.118 | -0.851 | -0.429 | -0.984 | -1.19
GAGUGUAAUUACGUACAUGCAGUAGCUC [hsa-mir-618] | 0.413 | 0.405 | 0.182 | 0.341 | 0.152
UGUUAAGGCAUGUUCAGGAACA [hsa-mir-1265] | 2.1 | -0.0763 | 0.401 | 0.28 | 0.652
GUUACUAAUCUAACUAAUUGUAAC [hsa-mir-582] | 1.11 | 0.0863 | 0.0952 | 0.00217 | -0.722
CGGAGCAGUCACGUUGACGGAAUCCUCCG [hsa-mir-3183] | 0.489 | 0.234 | -0.255 | 0.329 | 0.498
AUGUUCGCUUCAUUCAUCAUGAAUAA [hsa-mir-655] | -0.248 | 0.297 | 0.089 | 0.385 | -0.299
GUGAUGUGAGGAGCAACAGGCACCCUCCU [hsa-mir-6792] | -0.596 | -0.0611 | 0.254 | 0.246 | 0.846
UGUCGUAGAAAGUAAUGGCA [hsa-mir-548l] | 0.662 | 0.0469 | -0.0955 | -0.189 | -0.387
AGUUGUGAAUUCUCAAAACACCU [hsa-mir-660] | -0.342 | -0.401 | -0.349 | -0.417 | -0.129
CUAUGGCCCCCCUCCUCUCUGAAAGCAAGGCCACUUG [hsa-mir-8081] | -1.13 | 0.3 | 0.282 | 0.738 | 0.982
UGUUUCUUUAUUGAGGACGAAACA [hsa-mir-329-2] | 0.973 | -0.144 | -0.343 | -0.5 | -0.89
GUAGAUUGAAAGCCCUAAUUUUAC [hsa-mir-3941] | -0.805 | -0.486 | 0.306 | -0.0427 | 0.452
UGGCGACACUCGCGCCAGCUCCCGGGACGGCUGGGCUCGGGCUGGUCGCCGA [hsa-mir-7845] | 3.14 | 0.0309 | -0.167 | 0.341 | 1.38
UAGGCUGUUUCCAUCUGUGAGGCCUA [hsa-mir-26a-2] | -0.141 | -0.164 | -0.375 | -0.233 | -0.00853
AAUGUCAGGGCCACCCCUGACCUU [hsa-mir-6837] | 0.482 | -0.431 | -0.382 | -0.481 | -0.497
UCAGACACAUCAGAUCCCUUAUCUGUAAAAUGGGCAUGA [hsa-mir-640] | 0.152 | -0.19 | -0.013 | 0.00353 | 0.521
GGUUGGGGUGGGCUGCCUGUGGACCAAUC [hsa-mir-4525] | 0.722 | 2.14 | 1.06 | 2.44 | 1.94
AGGGGUCAUAUCUCUUCUCAGGGAAAGCAGGAGCCCUUCAGCAGGGUCAGGGCCCCU [hsa-mir-6891] | 1.5 | 0.705 | 0.263 | 0.761 | 0.317
AGCCACUGCGGUCGACCAUGACCUGGA [hsa-mir-619] | -0.783 | 0.401 | 0.0618 | 0.578 | 0.721
CAGCCCUGCACUGAAC [hsa-mir-614] | -1.84 | 0.285 | 0.00113 | 0.941 | 1.39
AUGUGAUGUCACUGAGGAAAUCACAC [hsa-mir-216b] | 0.862 | -0.223 | -0.272 | -0.124 | -0.00778
UCCUCAGACCAGGUGGCUCCCGAGCCACCCCAGGCUGUAGG [hsa-mir-2392] | -1.09 | -0.0269 | -0.183 | 0.743 | 1.75
GCAAGGCUGUAGUGUGCACAGCCUUGA [hsa-mir-4452] | -0.383 | 0.945 | 0.127 | 0.936 | 0.583
AGUGGACGAGUCUCAUUA [hsa-mir-3193] | -0.476 | 0.224 | 0.319 | 0.678 | 0.613
UCUUCCCAAAGUUGAGAAAA [hsa-mir-320d-1] | -1.32 | -0.611 | -0.407 | -0.746 | -0.758
